Laboratory results taken from US20200024330A1.

Columns and labels:
Assay in all cases: cell-based or functional assay
[1] = biological target: HIV-1 Env of isolate MG RM-D-004 (subtype D) (HIV-1)
[2] = biological target: HIV-1 Env of isolate 92UG114 (subtype D) (HIV-1)
[3] = biological target: HIV-1 THR0.18 Env (pseudovirus) (HIV-1)
[4] = biological target: HIV-1 Env of isolate MG RM-D-011 (subtype D) (HIV-1)
[5] = biological target: HIV-1 PVO.4 Env (pseudovirus) (HIV-1)
[6] = biological target: HIV-1 Env of isolate MGRM-C-006 (pseudovirus) (HIV-1 isolate MGRM-C-006, subtype C)
[7] = biological target: HIV-1 MGRM-Chronic-B-024 Env (pseudovirus) (HIV-1)
[8] = biological target: HIV-1 TRJ04551.58 Env (pseudovirus) (HIV-1)
[9] = biological target: HIV-1 MGRM-Chronic-B-008 Env (pseudovirus) (HIV-1)
[10] = biological target: HIV-1 92UG005 envelope glycoprotein (Env) on pseudovirus (HIV-1)
[11] = biological target: HIV-1 Env of isolate MGRM-AE-003 (HIV-1)
[12] = biological target: HIV-1 Env of isolate MGRM-Chronic-B-008 (HIV-1)
[13] = biological target: HIV-1 Env of isolate MGRM-F1-015 (subtype F), on pseudovirus (HIV-1)
[14] = biological target: HIV-1 Env of isolate APV-13 (pseudovirus) (HIV-1 isolate APV-13, subtype B)
[15] = biological target: HIV-1 Env of isolate VLGCB3 (HIV-1)
[16] = biological target: HIV-1 Env of isolate CMU02 (CRF01_AE), on pseudovirus (HIV-1)
[17] = biological target: HIV-1 Env of isolate MGRM-F1-014 (subtype F), on pseudovirus (HIV-1)
[18] = biological target: HIV-1 Env of isolate MGRM-D-001 (HIV-1)
[19] = biological target: HIV-1 Env of isolate MGRM-F1-006 (subtype F), on pseudovirus (HIV-1)
[20] = biological target: HIV-1 Env of isolate MGRM-C-025 (HIV-1)
[21] = biological target: HIV-1 Env of isolate MGRM-C-027 (HIV-1)
[22] = biological target: HIV-1 Env of isolate MGRM-F1-013 (subtype F), on pseudovirus (HIV-1)
[23] = biological target: HIV-1 Env of isolate MGRM-G-004 (subtype G) (HIV-1)
[24] = biological target: HIV-1 Env of isolate MGRM-G-001 (subtype G) (HIV-1)
[25] = biological target: HIV-1 Env of isolate MGRM-G-017 (subtype G) (HIV-1)
[26] = biological target: HIV-1 Env of isolate MGRM-G-024 (subtype G) (HIV-1)
[27] = biological target: HIV-1 JRCSF envelope glycoprotein (Env) on pseudovirus (HIV-1) (UniProt P20871)
[28] = biological target: HIV-1 JR-CSF Env I165A (HIV-1 (isolate JR-CSF)) (UniProt P20871)
[29] = biological target: HIV-1 JR-CSF Env N188A (HIV-1 (isolate JR-CSF)) (UniProt P20871)
[30] = biological target: HIV-1 MGRM-C-028 envelope glycoprotein (Env) on pseudovirus (HIV-1)

PGT-142 (4995_E20) (antibody), sequence (VH): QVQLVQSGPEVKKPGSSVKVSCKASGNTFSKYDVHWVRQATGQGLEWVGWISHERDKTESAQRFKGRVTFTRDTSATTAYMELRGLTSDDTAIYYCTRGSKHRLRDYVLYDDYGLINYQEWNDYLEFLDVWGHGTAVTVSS
PGT-142 (4995_E20) (antibody), sequence (VL): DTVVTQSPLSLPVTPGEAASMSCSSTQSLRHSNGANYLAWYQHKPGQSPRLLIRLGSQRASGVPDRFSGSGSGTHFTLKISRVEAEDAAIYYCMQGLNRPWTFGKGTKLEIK
5345_I01 (PGT-137) (antibody), sequence (VH): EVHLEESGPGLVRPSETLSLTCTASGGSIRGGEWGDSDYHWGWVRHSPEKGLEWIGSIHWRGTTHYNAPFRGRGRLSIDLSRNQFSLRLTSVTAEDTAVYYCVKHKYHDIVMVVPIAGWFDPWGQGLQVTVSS
5345_I01 (PGT-137) (antibody), sequence (VL): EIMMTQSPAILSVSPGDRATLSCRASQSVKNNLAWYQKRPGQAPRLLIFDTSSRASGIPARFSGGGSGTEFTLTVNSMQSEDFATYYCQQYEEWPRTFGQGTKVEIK
PGT-141 (4964_G22; 4993_K13) (antibody), sequence (VH): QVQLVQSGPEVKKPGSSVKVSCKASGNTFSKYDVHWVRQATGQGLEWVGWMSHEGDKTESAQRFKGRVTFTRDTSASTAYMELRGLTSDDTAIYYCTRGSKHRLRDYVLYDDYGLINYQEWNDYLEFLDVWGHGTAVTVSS
5329_C19 (PGT-136) (antibody), sequence (VH): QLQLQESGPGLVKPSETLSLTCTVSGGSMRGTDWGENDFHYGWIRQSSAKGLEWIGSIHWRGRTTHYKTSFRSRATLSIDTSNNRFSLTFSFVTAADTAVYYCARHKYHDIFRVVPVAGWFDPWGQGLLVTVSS
5329_C19 (PGT-136) (antibody), sequence (VL): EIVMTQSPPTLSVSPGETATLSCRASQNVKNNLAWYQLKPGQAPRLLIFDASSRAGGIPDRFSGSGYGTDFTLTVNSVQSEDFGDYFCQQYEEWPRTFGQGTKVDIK

## 4838_L06 (PGT-121) (antibody)
[1]
  IC50 (µg/mL), pseudovirus neutralization: > 50 µg/mL
[2]
  IC50 (µg/mL), pseudovirus neutralization: 0.004 µg/mL
[3]
  IC50, pseudovirus neutralization: > 50 µg/mL
[4]
  IC50 (µg/mL), pseudovirus neutralization: 0.018 µg/mL
[5]
  IC50, pseudovirus neutralization: 0.137 µg/mL
[6]
  IC50 (µg/mL) neutralization: 0.017 µg/mL
[7]
  IC50, pseudovirus neutralization: 0.195 µg/mL
[8]
  IC50, pseudovirus neutralization: 7.09 µg/mL
[9]
  IC50, pseudovirus neutralization: 0.007 µg/mL
[10]
  IC50 (ug/ml), neutralizing activity: > 10 µg/mL

## PGT-122 (antibody)
[11]
  IC50 (µg/mL), pseudovirus neutralization: > 50 µg/mL

## 5329_C19 (PGT-136) (antibody)
[12]
  IC50: > 50 µg/mL
[13]
  IC50, pseudovirus neutralization: > 50 µg/mL
[14]
  IC50 (µg/mL) neutralization: > 50 µg/mL
[15]
  IC50: > 50 µg/mL
[16]
  IC50, single-round pseudovirus neutralization: > 50 µg/mL
[17]
  IC50, pseudovirus neutralization: > 50 µg/mL
[18]
  IC50: > 50 µg/mL
[19]
  IC50, pseudovirus neutralization: > 50 µg/mL
[20]
  IC50: > 50 µg/mL
[21]
  IC50: > 50 µg/mL
[22]
  IC50, pseudovirus neutralization: > 50 µg/mL

## PGT-142 (4995_E20) (antibody)
[23]
  neutralization IC50: > 50 µg/mL
[24]
  neutralization IC50: 0.362 µg/mL
[25]
  neutralization IC50: 0.125 µg/mL
[26]
  neutralization IC50: 0.054 µg/mL

## 5141_B17 (PGT-126) (antibody)
[1]
  IC50 (µg/mL), pseudovirus neutralization: > 50 µg/mL
[2]
  IC50 (µg/mL), pseudovirus neutralization: 0.038 µg/mL
[3]
  IC50, pseudovirus neutralization: > 50 µg/mL
[4]
  IC50 (µg/mL), pseudovirus neutralization: 0.009 µg/mL
[5]
  IC50, pseudovirus neutralization: 0.017 µg/mL
[27]
  IC50 (ug/ml), neutralizing activity: 0.0061 µg/mL
[6]
  IC50 (µg/mL) neutralization: 0.014 µg/mL
[28]
  Fold IC50 increase relative to wild-type: 2.5 fold
[7]
  IC50, pseudovirus neutralization: > 50 µg/mL
[8]
  IC50, pseudovirus neutralization: 0.025 µg/mL
[29]
  Fold IC50 increase relative to wild-type: 0.8 fold
[9]
  IC50, pseudovirus neutralization: 5.89 µg/mL
[30]
  IC50 (ug/ml), neutralizing activity: 0.283 µg/mL
[10]
  IC50 (ug/ml), neutralizing activity: 0.0181 µg/mL

## PGT-141 (4964_G22; 4993_K13) (antibody)
[23]
  neutralization IC50: > 50 µg/mL
[24]
  neutralization IC50: 0.392 µg/mL
[25]
  neutralization IC50: 0.164 µg/mL
[26]
  neutralization IC50: 0.051 µg/mL

## 5345_I01 (PGT-137) (antibody)
[12]
  IC50: > 50 µg/mL
[13]
  IC50, pseudovirus neutralization: > 50 µg/mL
[14]
  IC50 (µg/mL) neutralization: > 50 µg/mL
[15]
  IC50: 3.36 µg/mL
[16]
  IC50, single-round pseudovirus neutralization: > 50 µg/mL
[17]
  IC50, pseudovirus neutralization: > 50 µg/mL
[18]
  IC50: > 50 µg/mL
[19]
  IC50, pseudovirus neutralization: > 50 µg/mL
[20]
  IC50: > 50 µg/mL
[21]
  IC50: > 50 µg/mL
[22]
  IC50, pseudovirus neutralization: > 50 µg/mL

## 4877_D15 (PGT-122) (antibody)
[1]
  IC50 (µg/mL), pseudovirus neutralization: > 50 µg/mL
[2]
  IC50 (µg/mL), pseudovirus neutralization: 0.011 µg/mL
[3]
  IC50, pseudovirus neutralization: > 50 µg/mL
[4]
  IC50 (µg/mL), pseudovirus neutralization: 0.019 µg/mL
[5]
  IC50, pseudovirus neutralization: 0.689 µg/mL
[27]
  IC50 (ug/ml), neutralizing activity: 0.0727 µg/mL
[6]
  IC50 (µg/mL) neutralization: 0.018 µg/mL
[7]
  IC50, pseudovirus neutralization: 2.31 µg/mL
[8]
  IC50, pseudovirus neutralization: > 50 µg/mL
[9]
  IC50, pseudovirus neutralization: 0.017 µg/mL
[30]
  IC50 (ug/ml), neutralizing activity: 2.06 µg/mL
[10]
  IC50 (ug/ml), neutralizing activity: > 10 µg/mL

## 5123_A06 (PGT-125) (antibody)
[1]
  IC50 (µg/mL), pseudovirus neutralization: 0.371 µg/mL
[2]
  IC50 (µg/mL), pseudovirus neutralization: 0.349 µg/mL
[3]
  IC50, pseudovirus neutralization: > 50 µg/mL
[4]
  IC50 (µg/mL), pseudovirus neutralization: 0.008 µg/mL
[5]
  IC50, pseudovirus neutralization: 0.042 µg/mL
[27]
  IC50 (ug/ml), neutralizing activity: 0.006 µg/mL
  neutralization IC50: 0.006 µg/mL
  neutralization IC80: 0.0196 µg/mL
  neutralization IC90: 0.0392 µg/mL
  neutralization IC95: 0.0741 µg/mL
[6]
  IC50 (µg/mL) neutralization: 0.015 µg/mL
[28]
  Fold IC50 increase relative to wild-type: 2.3 fold
[7]
  IC50, pseudovirus neutralization: > 50 µg/mL
[8]
  IC50, pseudovirus neutralization: 0.019 µg/mL
[29]
  Fold IC50 increase relative to wild-type: 0.7 fold
[9]
  IC50, pseudovirus neutralization: > 50 µg/mL
[30]
  IC50 (ug/ml), neutralizing activity: 5.78 µg/mL
  neutralization IC50: 5.78 µg/mL
  neutralization IC80: > 10 µg/mL
  neutralization IC90: > 10 µg/mL
  neutralization IC95: > 10 µg/mL
[10]
  IC50 (ug/ml), neutralizing activity: > 10 µg/mL
  neutralization IC50: > 10 µg/mL
  neutralization IC80: > 10 µg/mL
  neutralization IC90: > 10 µg/mL
  neutralization IC95: > 10 µg/mL
